# Test results from US6632627B2, “Glutamine: fructose-6-phosphate amidotransferase, its production and use” (Takeda Chemical Industries, Ltd., priority 1997, dated 2003).
# B1: TGC028-4: human-derived protein having the amino acid sequence of SEQ ID NO:3 (682 residues), constructed from TGC028-3 and a GFAT-like DNA fragment (protein)
# chain: MCGIFAYMNYRVPRTRKEIFETLIKGLQRLEYRGYDSAGVAIDGNNHEVKERHIQLVKKRGKVKALDEELYKQDSMDLKVEFETHFGIAHTRWATHGVPSAVNSHPQRSDKGNEFVVIHNGIITNYKDLRKFLESKGYEFESETDTETIAKLIKYVFDNRETEDITFSTLVERVIQQLEGAFALVFKSVHYPGEAVATRRGSPLLIGVRSKYKLSTEQIPILYRTCTLENVKNICKTRMKRLDSSACLHAVGDKAVEFFFASDASAIIEHTNRVIFLEDDDIAAVADGKLSIHRVKRSASDDPSRAIQTLQMELQQIMKGNFSAFMQKEIFEQPESVFNTMRGRVNFETNTVLLGGLKDHLKEIRRCRRLIVIGCGTSYHAAVATRQVLEELTELPVMVELASDFLDRNTPVFRDDVCFFISQSGETADTLLALRYCKDRGALTVGVTNTVGSSISRETDCGVHINAGPEIGVASTKAYTSQFISLVMFGLMMSEDRISLQNRRQEIIRGLRSLPELIKEVLSLEEKIHDLALELYTQRSLLVMGRGYNYATCLEGALKIKEITYMHSEGILAGELKHGPLALIDKQMPVIMVIMKDPCFAKCQNALQQVTARQGRPIILCSKDDTESSKFAYKTIELPHTVDCLQGILSVIPLQLLSFHLAVLRGYDVDFPRNLAKSVTVE
# B2: TGC028-3: human-derived protein having the amino acid sequence of SEQ ID NO:2 (615 residues), novel GFAT protein expressed in E. coli (protein)
# chain: MCGIFAYMNYRVPRTRKEIFETLIKGLQRLEYRGYDSAGVAIDGNNHEVKERHIQLVKKRGKVKALDEELYKQDSMDLKVEFETHFGIAHTRWATHGVPSAVNSHPQRSDKGNEFVVIHNGIITNYKDLRKFLESKGYEFESETDTETIAKLIKYVFDNRETEDITFSTLVERVIQQLEGAFALVFKSVHYPGEAVATRRGSPLLIGVRSKYKLSTEQIPILYRTCTLENVKNICKTRMKRLDSSACLHAVGDKAVEFFFASDASAIIEHTNRVIFLEDDDIAAVADGKLSIHRVKRSASDDPSRAIQTLQMELQQIMKGNFSAFMQKEIFEQPESVFNTMRGRVNFETNTVLLGGLKDHLKEIRRCRRLIVIGCGTSYHAAVATRQVLEELTELPVMVELASDFLDRNTPVFRDDVCFFISQSGETADTLLALRYCKDRGALTVGVTNTVGSSISRETDCGVHINAGPEIGVASTKAYTSQFISLVMFGLMMSEDRISLQNRRQEIIRGLRSLPELIKEVLSLEEKIHDLALELYTQRSLLVMGRGYNYATCLEGALKIKEITYMHSEGILAGELKHGPLALIDKQMPVIMVIMKDPCFAKCQNALQQVTARQV
# Experiment: Detection of GFAT activity of the proteins (HPLC detection of PITC-bound glucosamine-6-phosphate)
# Assay type: biochemical
# Conditions: 1 μl recombinant protein in 100 μl reaction mixture; 6 mM glutamine, 10 mM fructose-6-phosphate; pH 7.5; room temperature, 5 hours
# Description: GFAT activity of the proteins: TGC028-3 and TGC028-4 was measured in the following manner. In a solution (0.1 M K2HP04, 50 mM KCl, 50 mM HEPES, 1 mM EDTA, 5 mM DTT, pH 7.5) were added glutamine and fructose-6-phosphate to final concentrations of 6 mM and 10 mM, respectively. Then, in 100 μl of this reaction mixture was added 1 μl of TGC028-3 or TGC028-4 protein, and the reaction mixture was incubated at room temperature for 5 hours. Thereafter, the reaction mixture was subjected to centrifugal filtration using a Ultrafree C3GC (cut-off molecular weight: 10,000; Millipore) and the filtrate obtained was mixed with an equal volume of a solution consisted of methanol, water, and triethylamine at the ratio of 2:2:1. After the mixture was dried in vacuo, the residue was dissolved in 20 μl of a mixed solution of methanol, water, and triethylamine-phenyl isothiocyanate (PITC) at the ratio of 7:1:1:1 and the reaction was carried out at room temperature for 20 minutes. […] Elution was carried out using a mobile phase comprising 232 mM sodium acetate, 0.1% triethylamine and 5% acetonitrile (pH 6.0) at a flow rate of 1 ml/minute and PITC-bound glucosamine-6-phosphate was detected at UV 254 nm.
row,Molecule,"GFAT activity: formation of glucosamine-6-phosphate (peak of PITC-bound glucosamine-6-phosphate by HPLC, UV 254 nm)"
1,B1,a peak was confirmed at the position corresponding to PITC-bound glucosamine-6-phosphate
2,B2,a peak was confirmed at the position corresponding to PITC-bound glucosamine-6-phosphate
